Data: patent US20230192865A1
Blank lines part the entries; values can stand above or below the binder they belong to.

Legend:
[1] = target: T1, Galectin-10 protein with His tag (expressed and purified with pk277) (Homo sapiens (Human)) (UniProt Q05315); test: ELISA, His-tagged Galectin-10 coated at 2500 ng/mL, 254# diluted 1:200, anti-GST mouse antibody and HRP goat anti-mouse, repeat 3
T1 sequence: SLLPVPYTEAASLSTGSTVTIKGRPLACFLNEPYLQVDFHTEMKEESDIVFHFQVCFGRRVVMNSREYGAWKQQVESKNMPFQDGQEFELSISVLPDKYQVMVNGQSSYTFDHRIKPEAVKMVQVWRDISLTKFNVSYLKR

[2] = target: T1, Galectin-10 protein with His tag (expressed and purified with pk277) (Homo sapiens (Human)); test: ELISA, His-tagged Galectin-10 coated at 500 ng/mL, 254# diluted 1:200, anti-GST mouse antibody and HRP goat anti-mouse, repeat 1
[3] = target: T1, Galectin-10 protein with His tag (expressed and purified with pk277) (Homo sapiens (Human)); test: ELISA, His-tagged Galectin-10 coated at 2500 ng/mL, 254# diluted 1:200, anti-GST mouse antibody and HRP goat anti-mouse, repeat 2
[4] = target: T1, Galectin-10 protein with His tag (expressed and purified with pk277) (Homo sapiens (Human)); test: ELISA, His-tagged Galectin-10 coated at 500 ng/mL, 254# diluted 1:200, anti-GST mouse antibody and HRP goat anti-mouse, repeat 3
[5] = target: T1, Galectin-10 protein with His tag (expressed and purified with pk277) (Homo sapiens (Human)); test: ELISA, His-tagged Galectin-10 coated at 125 ng/mL, 254# diluted 1:200, anti-GST mouse antibody and HRP goat anti-mouse, average
[6] = target: T1, Galectin-10 protein with His tag (expressed and purified with pk277) (Homo sapiens (Human)); test: ELISA on coated His-tagged Galectin-10, anti-GST detection
[7] = target: T1, Galectin-10 protein with His tag (expressed and purified with pk277) (Homo sapiens (Human)); test: ELISA, His-tagged Galectin-10 coated at 125 ng/mL, 254# diluted 1:200, anti-GST mouse antibody and HRP goat anti-mouse, repeat 2
[8] = target: T1, Galectin-10 protein with His tag (expressed and purified with pk277) (Homo sapiens (Human)); test: ELISA, His-tagged Galectin-10 coated at 2500 ng/mL, 254# diluted 1:200, anti-GST mouse antibody and HRP goat anti-mouse, repeat 1
[9] = target: T1, Galectin-10 protein with His tag (expressed and purified with pk277) (Homo sapiens (Human)); test: ELISA, His-tagged Galectin-10 coated at 500 ng/mL, 254# diluted 1:200, anti-GST mouse antibody and HRP goat anti-mouse, average
[10] = target: T1, Galectin-10 protein with His tag (expressed and purified with pk277) (Homo sapiens (Human)); test: ELISA, His-tagged Galectin-10 coated at 2500 ng/mL, 254# diluted 1:200, anti-GST mouse antibody and HRP goat anti-mouse, average
[11] = target: T1, Galectin-10 protein with His tag (expressed and purified with pk277) (Homo sapiens (Human)); test: ELISA, His-tagged Galectin-10 coated at 125 ng/mL, 254# diluted 1:200, anti-GST mouse antibody and HRP goat anti-mouse, repeat 1
[12] = target: T1, Galectin-10 protein with His tag (expressed and purified with pk277) (Homo sapiens (Human)); test: ELISA, His-tagged Galectin-10 coated at 500 ng/mL, 254# diluted 1:200, anti-GST mouse antibody and HRP goat anti-mouse, repeat 2
[13] = target: T1, Galectin-10 protein with His tag (expressed and purified with pk277) (Homo sapiens (Human)); test: ELISA, His-tagged Galectin-10 coated at 125 ng/mL, 254# diluted 1:200, anti-GST mouse antibody and HRP goat anti-mouse, repeat 3
[14] = target: T1, Galectin-10 protein with His tag (expressed and purified with pk277) (Homo sapiens (Human)); test: ELISA, His-tagged Galectin-10 coated at 2500 ng/mL, 225# diluted 1:200, anti-GST mouse antibody and HRP goat anti-mouse, repeat 3
[15] = target: T1, Galectin-10 protein with His tag (expressed and purified with pk277) (Homo sapiens (Human)); test: ELISA, His-tagged Galectin-10 coated at 500 ng/mL, 225# diluted 1:200, anti-GST mouse antibody and HRP goat anti-mouse, average
[16] = target: T1, Galectin-10 protein with His tag (expressed and purified with pk277) (Homo sapiens (Human)); test: ELISA, His-tagged Galectin-10 coated at 500 ng/mL, 225# diluted 1:200, anti-GST mouse antibody and HRP goat anti-mouse, repeat 3
[17] = target: T1, Galectin-10 protein with His tag (expressed and purified with pk277) (Homo sapiens (Human)); test: ELISA, His-tagged Galectin-10 coated at 125 ng/mL, 225# diluted 1:200, anti-GST mouse antibody and HRP goat anti-mouse, repeat 1
[18] = target: T1, Galectin-10 protein with His tag (expressed and purified with pk277) (Homo sapiens (Human)); test: ELISA, His-tagged Galectin-10 coated at 500 ng/mL, 225# diluted 1:200, anti-GST mouse antibody and HRP goat anti-mouse, repeat 1
[19] = target: T1, Galectin-10 protein with His tag (expressed and purified with pk277) (Homo sapiens (Human)); test: ELISA, His-tagged Galectin-10 coated at 2500 ng/mL, 225# diluted 1:200, anti-GST mouse antibody and HRP goat anti-mouse, average
[20] = target: T1, Galectin-10 protein with His tag (expressed and purified with pk277) (Homo sapiens (Human)); test: ELISA, His-tagged Galectin-10 coated at 125 ng/mL, 225# diluted 1:200, anti-GST mouse antibody and HRP goat anti-mouse, average
[21] = target: T1, Galectin-10 protein with His tag (expressed and purified with pk277) (Homo sapiens (Human)); test: ELISA, His-tagged Galectin-10 coated at 2500 ng/mL, 225# diluted 1:200, anti-GST mouse antibody and HRP goat anti-mouse, repeat 1
[22] = target: T1, Galectin-10 protein with His tag (expressed and purified with pk277) (Homo sapiens (Human)); test: ELISA, His-tagged Galectin-10 coated at 2500 ng/mL, 225# diluted 1:200, anti-GST mouse antibody and HRP goat anti-mouse, repeat 2
[23] = target: T1, Galectin-10 protein with His tag (expressed and purified with pk277) (Homo sapiens (Human)); test: ELISA, His-tagged Galectin-10 coated at 125 ng/mL, 225# diluted 1:200, anti-GST mouse antibody and HRP goat anti-mouse, repeat 2
[24] = target: T1, Galectin-10 protein with His tag (expressed and purified with pk277) (Homo sapiens (Human)); test: ELISA, His-tagged Galectin-10 coated at 125 ng/mL, 225# diluted 1:200, anti-GST mouse antibody and HRP goat anti-mouse, repeat 3
[25] = target: T1, Galectin-10 protein with His tag (expressed and purified with pk277) (Homo sapiens (Human)); test: ELISA, His-tagged Galectin-10 coated at 500 ng/mL, 225# diluted 1:200, anti-GST mouse antibody and HRP goat anti-mouse, repeat 2

- OD at 450 nm [1]: 1.34 OD450
- OD at 450 nm [2]: 0.615 OD450
- OD at 450 nm [3]: 1.2 OD450
- OD at 450 nm [4]: 0.577 OD450
- OD at 450 nm [5]: 0.373 OD450
- minimum test concentration [6]: 125 ng/mL
- OD at 450 nm [7]: 0.353 OD450
- OD at 450 nm [8]: 1.32 OD450
- OD at 450 nm [9]: 0.581 OD450
- OD at 450 nm [10]: 1.28 OD450
- OD at 450 nm [11]: 0.397 OD450
- OD at 450 nm [12]: 0.551 OD450
- OD at 450 nm [13]: 0.37 OD450
B1: 254# nano antibody (SEQ ID NO: 3) (VHH, not shown: a dimerising Fc or GST; small tags and cut ends)
VHH: EVQLQASGGGFVQPGGSLRLSCAASGFTFSSFAMGWFRQAPGKEREFVSAISSGGGNTYYADSVKGRFTISRDNSKNTVYLQMNSLRAEDTATYYCVTPGGRLWYYRYDYRCQGTQVTVSS

- OD at 450 nm [14]: 0.681 OD450
- OD at 450 nm [15]: 0.265 OD450
- OD at 450 nm [16]: 0.279 OD450
- minimum test concentration [6]: 125 ng/mL
- OD at 450 nm [17]: 0.155 OD450
- OD at 450 nm [18]: 0.257 OD450
- OD at 450 nm [19]: 0.707 OD450
- OD at 450 nm [20]: 0.16 OD450
- OD at 450 nm [21]: 0.74 OD450
- OD at 450 nm [22]: 0.7 OD450
- OD at 450 nm [23]: 0.153 OD450
- OD at 450 nm [24]: 0.173 OD450
- OD at 450 nm [25]: 0.26 OD450
B2: 225# nano antibody (SEQ ID NO: 4) (VHH, not shown: a dimerising Fc or GST; small tags and cut ends)
VHH: EVQLQASGGGFVQPGGSLRLSCAASGFTFSSYAMGWFRQAPGKERELVSAISSGGGNTYYADSVKGRFTISRDNSKNTVYLQMNSLRAEDTATYYCVTPGGRLWYYRYDYRCQGTQVTVSS
